Assay results: PMC11217292

Biological target: OSM-3 H207Q mutant, EGFP tagged (C. elegans) (UniProt P46873)
Sequence of UniProt P46873 (P46873 whole entry H207Q): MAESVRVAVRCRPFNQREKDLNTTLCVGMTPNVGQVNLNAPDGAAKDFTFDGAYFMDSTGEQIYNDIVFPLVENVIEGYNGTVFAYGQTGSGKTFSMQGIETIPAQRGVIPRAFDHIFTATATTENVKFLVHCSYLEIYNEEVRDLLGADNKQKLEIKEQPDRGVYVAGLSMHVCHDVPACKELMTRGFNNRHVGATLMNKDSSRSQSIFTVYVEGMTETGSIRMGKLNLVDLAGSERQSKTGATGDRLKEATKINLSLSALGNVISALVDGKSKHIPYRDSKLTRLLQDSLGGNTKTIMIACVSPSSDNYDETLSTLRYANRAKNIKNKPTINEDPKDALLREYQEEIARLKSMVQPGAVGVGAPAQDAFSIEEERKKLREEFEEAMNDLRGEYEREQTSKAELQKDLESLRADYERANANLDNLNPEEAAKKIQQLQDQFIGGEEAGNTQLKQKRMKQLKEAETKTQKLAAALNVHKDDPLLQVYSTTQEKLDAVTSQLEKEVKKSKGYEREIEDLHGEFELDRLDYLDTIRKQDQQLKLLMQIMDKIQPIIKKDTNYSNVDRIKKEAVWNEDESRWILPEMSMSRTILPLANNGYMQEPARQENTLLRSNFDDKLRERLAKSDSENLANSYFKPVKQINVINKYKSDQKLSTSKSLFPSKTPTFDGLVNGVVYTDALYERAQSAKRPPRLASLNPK

microtubule-stimulated ATPase activity relative to wild-type OSM-3 (set to 100%): 18%
Substance: microtubules (complex)
